Data as given in patent US20210388087A1.

T1: Human CD3eg linker (human)
T1 chain: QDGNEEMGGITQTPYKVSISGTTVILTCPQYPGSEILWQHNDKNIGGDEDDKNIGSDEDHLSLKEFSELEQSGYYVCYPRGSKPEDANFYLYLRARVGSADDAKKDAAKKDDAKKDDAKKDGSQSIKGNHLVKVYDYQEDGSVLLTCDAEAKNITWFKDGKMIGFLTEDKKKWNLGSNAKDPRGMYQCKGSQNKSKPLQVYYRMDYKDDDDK


Experiments:
[1] = target: CD3 epsilon homodimer protein (UniProt P07766); assay: SPR, antibody over immobilised CD3e homodimer
[2] = target: T1, Human CD3eg linker (human); assay: SPR Biacore T200, 25 C, Ab captured on anti-human Fc, antigen as analyte; conditions: remark: other sources report otherwise

Chain of CD3 epsilon homodimer protein (P07766 23-126): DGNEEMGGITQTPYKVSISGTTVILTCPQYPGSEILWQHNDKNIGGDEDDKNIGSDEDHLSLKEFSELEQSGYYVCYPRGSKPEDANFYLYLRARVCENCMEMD

KD ratio to GLS3000 [1] | Kd [2] | koff [2] | kon [2] | Binder
4460 |  |  |  | CE115HA000/GLS3000 N28D (antibody, IgG1, name in Kabat numbering, V domains shown) VH: QVQLVESGGGVVQPGRSLRLSCAASGFTFSNAWMHWVRQAPGKGLEWVAQIKAKSNNYATYYAESVKGRFTISRDDSKNSLYLQMNSLKTEDTAVYYCRYVHYGAYYGVDAWGQGTTVTVSS VL: DIVMTQSPLSLPVTPGEPASISCRSSQSLVHSDRNTYLHWYQQKPGQAPRLLIYKVSNRFSGVPDRFSGSGSGTDFTLKISRVEAEDVGVYYCGQGTQVPYTFGQGTKLEIK
72100 |  |  |  | CE115HA000/GLS3000 G91S (antibody, IgG1, name in Kabat numbering, V domains shown) VH: QVQLVESGGGVVQPGRSLRLSCAASGFTFSNAWMHWVRQAPGKGLEWVAQIKAKSNNYATYYAESVKGRFTISRDDSKNSLYLQMNSLKTEDTAVYYCRYVHYGAYYGVDAWGQGTTVTVSS VL: DIVMTQSPLSLPVTPGEPASISCRSSQSLVHSNRNTYLHWYQQKPGQAPRLLIYKVSNRFSGVPDRFSGSGSGTDFTLKISRVEAEDVGVYYCGQSTQVPYTFGQGTKLEIK
85800 |  |  |  | CE115HA000/GLS3000 H34R (antibody, IgG1, name in Kabat numbering, V domains shown) VH: QVQLVESGGGVVQPGRSLRLSCAASGFTFSNAWMHWVRQAPGKGLEWVAQIKAKSNNYATYYAESVKGRFTISRDDSKNSLYLQMNSLKTEDTAVYYCRYVHYGAYYGVDAWGQGTTVTVSS VL: DIVMTQSPLSLPVTPGEPASISCRSSQSLVHSNRNTYLRWYQQKPGQAPRLLIYKVSNRFSGVPDRFSGSGSGTDFTLKISRVEAEDVGVYYCGQGTQVPYTFGQGTKLEIK
 | 2.28 µM | 0.101 s⁻¹ | 44300 M⁻¹ s⁻¹ | H1647L0581 (antibody, V domains shown) VH: QVQLVESGGGLVQPGRSLRLSCAASGFKFSNTWFHWVRQAPGKGLEWVAQIKDYYNDYAAYYAPSVKGRFTISRDDSKNSIYLQMNSLKTEDTAVYYCHYVHYASASTLLPAEGVDAWGQGTTVTVSS VL: DIVMTQSPLSLPVTPGEPASISCQPSQEVVHMNRNTYLHWYQQKPGQAPRLLIYKVSNRFPGVPDRFSGSGSGTDFTLKISRVEAEDVGVYYCAQGTSHPFTFGQGTKLEIK
